# From patent US20260015399A1 (Boehringer Ingelheim, published 2026)
# *1 amine or outer side, *2 acyl side, *3 side chain or, on linkers, in order; H or OH if unused. Side-chain parts run from the residue outwards. The star is where a group is joined. C18 diacid = O=C(O)CCCCCCCCCCCCCCCCC(=O)*; γGlu = O=C(O)[C@H](CCC(=O)[*:2])N[*:1]; Isovaleryl = CC(C)CC(=O)*; Ahx = NCCCCCC(=O)O
# T1: human NPY2 receptor (human, UniProt P49146 1-381)
# T1 construct: whole, on cells; also called hNPY2-R; hNPY2R
# T1 sequence (looked up): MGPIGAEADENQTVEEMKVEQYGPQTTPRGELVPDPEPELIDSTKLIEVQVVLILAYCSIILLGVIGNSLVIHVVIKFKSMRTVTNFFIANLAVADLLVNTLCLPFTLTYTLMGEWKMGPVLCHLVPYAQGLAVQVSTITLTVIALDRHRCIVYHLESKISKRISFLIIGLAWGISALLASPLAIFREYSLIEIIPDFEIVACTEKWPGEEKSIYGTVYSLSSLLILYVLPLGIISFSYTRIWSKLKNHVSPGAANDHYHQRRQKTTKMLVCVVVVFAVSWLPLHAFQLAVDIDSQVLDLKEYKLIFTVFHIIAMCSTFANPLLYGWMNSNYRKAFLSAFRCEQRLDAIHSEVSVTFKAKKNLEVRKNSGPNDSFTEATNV
# B1: Compound 169 (peptide)
# peptide: Isovaleryl-APEK([Ahx-γGlu-C18 diacid])PEEDAEPEELQAYYVSLRHYYNWLTRQRY-NH2
# SMILES: CC(C)CC(=O)N[C@@H](C)C(=O)N1CCC[C@H]1C(=O)N[C@@H](CCC(=O)O)C(=O)N[C@@H](CCCCNC(=O)CCCCCNC(=O)CC[C@H](NC(=O)CCCCCCCCCCCCCCCCC(=O)O)C(=O)O)C(=O)N1CCC[C@H]1C(=O)N[C@@H](CCC(=O)O)C(=O)N[C@@H](CCC(=O)O)C(=O)N[C@@H](CC(=O)O)C(=O)N[C@@H](C)C(=O)N[C@@H](CCC(=O)O)C(=O)N1CCC[C@H]1C(=O)N[C@@H](CCC(=O)O)C(=O)N[C@@H](CCC(=O)O)C(=O)N[C@@H](CC(C)C)C(=O)N[C@@H](CCC(N)=O)C(=O)N[C@@H](C)C(=O)N[C@@H](Cc1ccc(O)cc1)C(=O)N[C@@H](Cc1ccc(O)cc1)C(=O)N[C@H](C(=O)N[C@@H](CO)C(=O)N[C@@H](CC(C)C)C(=O)N[C@@H](CCCNC(=N)N)C(=O)N[C@@H](Cc1c[nH]cn1)C(=O)N[C@@H](Cc1ccc(O)cc1)C(=O)N[C@@H](Cc1ccc(O)cc1)C(=O)N[C@@H](CC(N)=O)C(=O)N[C@@H](Cc1c[nH]c2ccccc12)C(=O)N[C@@H](CC(C)C)C(=O)N[C@H](C(=O)N[C@@H](CCCNC(=N)N)C(=O)N[C@@H](CCC(N)=O)C(=O)N[C@@H](CCCNC(=N)N)C(=O)N[C@@H](Cc1ccc(O)cc1)C(N)=O)[C@@H](C)O)C(C)C
# B2: Compound 170 (peptide)
# peptide: Isovaleryl-APEK([Ahx-γGlu-C18 diacid])PEEDAAPEEIQRYYVSLRHYYNWLTRQRY-NH2
# SMILES: CC[C@H](C)[C@H](NC(=O)[C@H](CCC(=O)O)NC(=O)[C@H](CCC(=O)O)NC(=O)[C@@H]1CCCN1C(=O)[C@H](C)NC(=O)[C@H](C)NC(=O)[C@H](CC(=O)O)NC(=O)[C@H](CCC(=O)O)NC(=O)[C@H](CCC(=O)O)NC(=O)[C@@H]1CCCN1C(=O)[C@H](CCCCNC(=O)CCCCCNC(=O)CC[C@H](NC(=O)CCCCCCCCCCCCCCCCC(=O)O)C(=O)O)NC(=O)[C@H](CCC(=O)O)NC(=O)[C@@H]1CCCN1C(=O)[C@H](C)NC(=O)CC(C)C)C(=O)N[C@@H](CCC(N)=O)C(=O)N[C@@H](CCCNC(=N)N)C(=O)N[C@@H](Cc1ccc(O)cc1)C(=O)N[C@@H](Cc1ccc(O)cc1)C(=O)N[C@H](C(=O)N[C@@H](CO)C(=O)N[C@@H](CC(C)C)C(=O)N[C@@H](CCCNC(=N)N)C(=O)N[C@@H](Cc1c[nH]cn1)C(=O)N[C@@H](Cc1ccc(O)cc1)C(=O)N[C@@H](Cc1ccc(O)cc1)C(=O)N[C@@H](CC(N)=O)C(=O)N[C@@H](Cc1c[nH]c2ccccc12)C(=O)N[C@@H](CC(C)C)C(=O)N[C@H](C(=O)N[C@@H](CCCNC(=N)N)C(=O)N[C@@H](CCC(N)=O)C(=O)N[C@@H](CCCNC(=N)N)C(=O)N[C@@H](Cc1ccc(O)cc1)C(N)=O)[C@@H](C)O)C(C)C
# B3: Compound 171 (peptide)
# peptide: Isovaleryl-APEK([Ahx-γGlu-C18 diacid])PEADASPEELQRYYVELRHYYNWLTRQRY-NH2
# SMILES: CC(C)CC(=O)N[C@@H](C)C(=O)N1CCC[C@H]1C(=O)N[C@@H](CCC(=O)O)C(=O)N[C@@H](CCCCNC(=O)CCCCCNC(=O)CC[C@H](NC(=O)CCCCCCCCCCCCCCCCC(=O)O)C(=O)O)C(=O)N1CCC[C@H]1C(=O)N[C@@H](CCC(=O)O)C(=O)N[C@@H](C)C(=O)N[C@@H](CC(=O)O)C(=O)N[C@@H](C)C(=O)N[C@@H](CO)C(=O)N1CCC[C@H]1C(=O)N[C@@H](CCC(=O)O)C(=O)N[C@@H](CCC(=O)O)C(=O)N[C@@H](CC(C)C)C(=O)N[C@@H](CCC(N)=O)C(=O)N[C@@H](CCCNC(=N)N)C(=O)N[C@@H](Cc1ccc(O)cc1)C(=O)N[C@@H](Cc1ccc(O)cc1)C(=O)N[C@H](C(=O)N[C@@H](CCC(=O)O)C(=O)N[C@@H](CC(C)C)C(=O)N[C@@H](CCCNC(=N)N)C(=O)N[C@@H](Cc1c[nH]cn1)C(=O)N[C@@H](Cc1ccc(O)cc1)C(=O)N[C@@H](Cc1ccc(O)cc1)C(=O)N[C@@H](CC(N)=O)C(=O)N[C@@H](Cc1c[nH]c2ccccc12)C(=O)N[C@@H](CC(C)C)C(=O)N[C@H](C(=O)N[C@@H](CCCNC(=N)N)C(=O)N[C@@H](CCC(N)=O)C(=O)N[C@@H](CCCNC(=N)N)C(=O)N[C@@H](Cc1ccc(O)cc1)C(N)=O)[C@@H](C)O)C(C)C
# B4: Compound 177 (peptide)
# peptide: Isovaleryl-APEK([Ahx-γGlu-C18 diacid])PEEDATPEELQQYYVSLRHYYNWLTRQRY-NH2
# SMILES: CC(C)CC(=O)N[C@@H](C)C(=O)N1CCC[C@H]1C(=O)N[C@@H](CCC(=O)O)C(=O)N[C@@H](CCCCNC(=O)CCCCCNC(=O)CC[C@H](NC(=O)CCCCCCCCCCCCCCCCC(=O)O)C(=O)O)C(=O)N1CCC[C@H]1C(=O)N[C@@H](CCC(=O)O)C(=O)N[C@@H](CCC(=O)O)C(=O)N[C@@H](CC(=O)O)C(=O)N[C@@H](C)C(=O)N[C@H](C(=O)N1CCC[C@H]1C(=O)N[C@@H](CCC(=O)O)C(=O)N[C@@H](CCC(=O)O)C(=O)N[C@@H](CC(C)C)C(=O)N[C@@H](CCC(N)=O)C(=O)N[C@@H](CCC(N)=O)C(=O)N[C@@H](Cc1ccc(O)cc1)C(=O)N[C@@H](Cc1ccc(O)cc1)C(=O)N[C@H](C(=O)N[C@@H](CO)C(=O)N[C@@H](CC(C)C)C(=O)N[C@@H](CCCNC(=N)N)C(=O)N[C@@H](Cc1c[nH]cn1)C(=O)N[C@@H](Cc1ccc(O)cc1)C(=O)N[C@@H](Cc1ccc(O)cc1)C(=O)N[C@@H](CC(N)=O)C(=O)N[C@@H](Cc1c[nH]c2ccccc12)C(=O)N[C@@H](CC(C)C)C(=O)N[C@H](C(=O)N[C@@H](CCCNC(=N)N)C(=O)N[C@@H](CCC(N)=O)C(=O)N[C@@H](CCCNC(=N)N)C(=O)N[C@@H](Cc1ccc(O)cc1)C(N)=O)[C@@H](C)O)C(C)C)[C@@H](C)O
# B5: Compound 178 (peptide)
# peptide: Isovaleryl-APEK([Ahx-γGlu-C18 diacid])PEAAATPEEIQRYYVALRHYYNWLTRQRY-NH2
# SMILES: CC[C@H](C)[C@H](NC(=O)[C@H](CCC(=O)O)NC(=O)[C@H](CCC(=O)O)NC(=O)[C@@H]1CCCN1C(=O)[C@@H](NC(=O)[C@H](C)NC(=O)[C@H](C)NC(=O)[C@H](C)NC(=O)[C@H](CCC(=O)O)NC(=O)[C@@H]1CCCN1C(=O)[C@H](CCCCNC(=O)CCCCCNC(=O)CC[C@H](NC(=O)CCCCCCCCCCCCCCCCC(=O)O)C(=O)O)NC(=O)[C@H](CCC(=O)O)NC(=O)[C@@H]1CCCN1C(=O)[C@H](C)NC(=O)CC(C)C)[C@@H](C)O)C(=O)N[C@@H](CCC(N)=O)C(=O)N[C@@H](CCCNC(=N)N)C(=O)N[C@@H](Cc1ccc(O)cc1)C(=O)N[C@@H](Cc1ccc(O)cc1)C(=O)N[C@H](C(=O)N[C@@H](C)C(=O)N[C@@H](CC(C)C)C(=O)N[C@@H](CCCNC(=N)N)C(=O)N[C@@H](Cc1c[nH]cn1)C(=O)N[C@@H](Cc1ccc(O)cc1)C(=O)N[C@@H](Cc1ccc(O)cc1)C(=O)N[C@@H](CC(N)=O)C(=O)N[C@@H](Cc1c[nH]c2ccccc12)C(=O)N[C@@H](CC(C)C)C(=O)N[C@H](C(=O)N[C@@H](CCCNC(=N)N)C(=O)N[C@@H](CCC(N)=O)C(=O)N[C@@H](CCCNC(=N)N)C(=O)N[C@@H](Cc1ccc(O)cc1)C(N)=O)[C@@H](C)O)C(C)C
# Target: T1, human NPY2 receptor
# Test: RLB: displacement of 125I-PYY(1-36) from hNPY2R membranes
row,Ki,Binder
1,5.82 nM,B1
2,2.28 nM,B2
3,2.83 nM,B3
4,8.65 nM,B4
5,3.39 nM,B5
